From article PMC6423008
Values joined by “and” are separate entries in the source; they are usually repeats but may differ in a detail not shown here. Equal entries are not always repeated.

Key:
[1] = biological target: His98 (UniProt position 99, NFPNYHQTSEI); experiment: NMR; conditions: 283 K (10 °C), 50 mM KCl plus 20 mM potassium phosphate, folded, 0.5 mM protein
[2] = biological target: His52 (UniProt position 53, FTWSQHYSGGH); experiment: NMR; conditions: 283 K (10 °C), 50 mM KCl plus 20 mM potassium phosphate, folded, 0.5 mM protein
[3] = biological target: His57 (UniProt position 58, HYSGGHTMTNK); experiment: NMR; conditions: 283 K (10 °C), 50 mM KCl plus 20 mM potassium phosphate, folded, 0.5 mM protein
[4] = biological target: His98 (UniProt position 99, SEKFSHEQEVK); conditions: apo chicken liver BABP; cited from earlier work
[5] = 0.05% NaN3, holo: doubly ligated I-BABP:GCDA:GCA = 1.0:1.5:1.5 complex

| Substance | pKa ([1]; 0.05% NaN3, apo (ligand-free)) | pKa [1, 5] | pKa ([2]; 0.05% NaN3, apo (ligand-free)) | pKa [2, 5] | pKa ([3]; 0.05% NaN3, apo (ligand-free)) | pKa [3, 5] | pKa [4] |
| --- | --- | --- | --- | --- | --- | --- | --- |
| Ileal bile acid-binding protein (I-BABP, gastrotropin, FABP6) (Homo sapiens) | 6.6 and 6.7 and 6.8 | 7.0 and 7.2 | 6.7 | 6.6 and 6.5 and 6.8 | 6.4 | 7.9 | – |
| Liver bile acid-binding protein (cL-BABP, liver basic fatty acid-binding protein) (Gallus gallus) | – | – | – | – | – | – | 4.7 |
